Assay results published in the supplement of paper PMC9170038.

system: K4 kissing-loop RNA reporter; assay: apparent KD of K4 kissing-loop reporter; higher = weaker reporter binding; settings: Eterna round: R107; input ligand: FMN 200 uM
Experimental: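 RNA-MaP round R107: designed RNA switches with theophylline, tryptophan, arginine or FMN aptamers are transcribed on-chip within common flanks. They are titrated with a labelled K4 kissing-loop RNA reporter in RNA-MaP buffer (100 mM Tris pH 7.5, 80 mM KCl, 4 mM MgCl2), without ligand or with the indicated ligand. Median apparent KD per design.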
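Further: bound reporter read as fluorescence of individual clusters on recovered sequencing chips by microscopy, with normalized cluster intensities fitted with a binding model.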

Sequence | apparent KD of K4 kissing-loop reporter
UGUACCGAGUCAGGAUAUGUCGUCGAAAGACGAAAUGGAGUGAUGUUCCUUAAACUGCGAAAGCAGACAGAAGGGAUUUGGUACU [FmnBS 29 U77] | 207 nM
GGAUAGGAUAGAGGAUAUGGGCUAGGCAAGAAUAACUUGUCUAGCAAAUCCAUGAGGAGUGAUGUUCCAGAAGGCUAUCCUAUCG [FmnBX 1 U9+A77] | 960 nM
CGAAUGGAACUAUUGAACAUUUGUAUUGGCAAGGAUAUCGGGCUAUCGAGAAGGUGCUAUUUGGGCAGUGAUGUUGCCGAUUUAA [theeternabot_sameState_KL_FMN_A_10] | 43.3 nM
GACACACUUUCAGGUGUCCAGUGACUGGAUACCAGCAUGGAAACAUGCCCUUGGCAGCCAGAACUGGAAGUGAUGUUUCCAGUAA [Theo A Mod Design7 (Brourd)] | 380 nM
AGCUCAGAGUGACUCGAUAAGAGUCACAAACGAGGACCGGUACGGCCGCCACUCGAAAUAAAGAGAGUGAUGUUCUCGCUGAGCA [FiskerMod 9 - Jieux - Same State Tryptophan A] | 200 nM
UGUAUUUCGGCGGCCGCCACUGACCAUAGCCUUCGAUGGCCAGUGAUGUUGGCCUCUGGCUCUAACAGGACCGGGCCGAAUUGCG [Usvediin] | 303 nM
GCAUCCAUGGCAGGAUAUAGGUUCGUGGAGUGAUGUUCCAUAGCCCGAGUGAUGUUCGUUAUCCGCCUAGAAGGGCCGUGGAUGC [whbob_Ex_FMNB__2th214] | 248 nM
AGGUACAAAAGUACCGCUAGAUCCACGGAAGGAGCGCCCGAAAGGGCAGGUAGGUCGCCGGGCAGUGAUGUUGCCGGAUCUAGCA [Omei KL Arginine A SS A v6] | 162 nM
UCCUGCAAUCGACCACGAAAGUGGUUCGAUACCAGAGUCGAAAGACUCCCUUGGCAGCGAGUGAUGUUCGAGCAGGUAAAAUAAA | 438 nM
AAAUUUAAUAUAUUUAAUUAAUUAAGUGAUACCAGACAUUAAUAAGUCCCUUGGCAGCACAAUGCAGUGAUGUUGCUUAUAAUAA [JR_SSTheophyA_Sub009] | 129 nM
AGUAGUUGGACGGCCGCCACUGGAACAGCUUUGCCAAAGGCAGAGCACUAGAGUGAUGUUCUAGCUAGGACCGGGUCCAACUACA [whbob_SS_Tryp_B_t16] | 338 nM
AAGUCAUAGGCAGGAUAUGCUUAGUAUUAAGGCCAUAUAUACGUAUAGAGUGAUGUUUUGUACCAGGCAGAAGGGCUACAUCCGU [FMN B Excl V5 (+2U)] | 755 nM
UAAGAAUAAGUAGCAGUGAUGUUGCUACUACGAGGACCGGUACGGCCGCCACUCGAGCCGUACAAAGUAGCAACUAGUACGAAUA [(H1)-(H2)-(Trp1)-(Trp2)-(T)'-(H)'-(T)''] | 231 nM
CCAGUUUGAGUGAUGUUCAGGCAUUGGUACGAGGAUAUCGAGGAGUUGAGAAGGCGUACUACUCAACUAUGUAUGAAUACAUACC [FMN A Ex t2] | 224 nM
GCCUAGCAGCGAAGGAGCGCCAGGAGAAGAAAUGGAGAGAGUUGAGUGAUGUUCAAAUGGUGGCAGGUAGGUCGCGCUGCUAGGC [#08 K4 Arginine B Same State] | 559 nM
UGAGGAGAGGGAAGGAGCGUGAAAGAGAAAGAAUAUAGUGAUGUUAUAUAGAAGAAAGAAUCACAGGUAGGUCGCCCGGAGGAGG [SSArgB.B] | 278 nM

Sequence | apparent KD of K4 kissing-loop reporter
CGCAUACCUGCGCUAGUAGUGAUGUUACAGCGAGGACCGGUACGGCCGCCACUCGUGACGGUCGCAAAACGCGUUGCAGAACACU [theeternabot_exclusion_KL_Trp_A_32] | 342 nM
GUCCCAGUGAUGUUGGUAGGCGAGCGGGAUACCAGCGAAGACUCACGCCCUUGGCAGCCCACAUAUCCCGCGUAGGGAUUAGCUC [Same State - Theophylline A (Freestyle 21)] | 364 nM
AAACUUGCAGUGAUGUUGCAAGUAGGUGAUACCAGCAUCGAAAGAUGCCCUUGGCAGCACCAUCACUGUAAGUAGGUGCUGUCAA [(H1)-(H2)-(T1)-(T2)-(H)'-(T)'_Design5] | 99.3 nM
AGUGAACGAGCGGCCGCCACUAAAUGAGUGAUGUUCGUGAGUAGUGCUGUUGUCAUGAUUGUUUUUAGGACCGGGUUCGAUGUUG [popplmullin] | 719 nM
ACGCGCGCGAGUGAUGUUCGGAGCGGCUGGCAGGAUAUGCCGCAAGGCAGAAGGGUCGUGGCGCGUCCAGGGUAACCUGGACGCG [#2 Exclusion - FMN A Attempt #28 (HarryS)] | 190 nM
UACAUUUUAUUAACACUAAAUACAACUGAAGGAGCGACAAUAAAGUCAGGUAGGUCGCAGAAUAAAUGAGUGAUGUUCAUUAUUG [JR_ExcArginiA_Sub016] | 60.2 nM
AGCUUGGGUUCGGCCGCCACUCCACCCUUAGAAGUGAUGUUUCUCAUGCAUACGCGUCGUCAGAUGAGGACCGGGAAUGUAGUUG [theeternabot_exclusion_KL_Trp_B_24] | 209 nM
GGAUAGGACAUAGGAUAUGGUAGUGAUGUUACCAAACUGGUUAAACAUGUCAGAAAACUGGCAUGACCAGAAGGAUGUCCUAUCG [FmnBX 27 U11+A75] | 85.2 nM
UAACGGCAACAAGGAUAUCCCAGUGAUGUUGGGAGAUAUUGACUAAGGAGACAUGAUAGGCAUAAUGGAGAAGGUGUGUUGGGAG [theeternabot_exclusion_KL_FMN_B_19] | 159 nM
AAAAUAAAGCAGUGAUGUUGCUUAUGAGAAGGAGCGCACGAAAGUGCAGGUAGGUCGCUCAGCCAAGUGGACGAAAACGUCCACA [#OpenEnded 10 #K4Early] | 112 nM
GCGGGCCAGACGGCCGCCACUCCGGGCAGUGAUGUUGCGAAUCUUCUACUAGAGUGAUGUUCUACGAGGACCGGGUCGGAACGCG [Exclusion Tryptophan B Gf 14] | 458 nM
AAUAAAAUCACGGCCGCCACUGAUUAUUUUAUUAGGAGUGAUGUUCCUAUGACAAUAUACCUUAACAGGACCGGGUGAAUAUUUA [JR_ExcTryptoB_Sub010] | 87.8 nM
GCCGUAGAUUGAAGGAGCGCCGCACAUGUCCCGCUUAGUGUAGUGAUGUUACAGUGUCAGCGGCAGGUAGGUCGCAAUCUACGGC | 85.8 nM
CUAAGGGAAGCAGGAUAUCGGUAUUAGUGUGUUAAAUAAACACUCGGGUAGUGAUGUUGCCCGUGGCGAGAAGGGCUACCAUUGG [Laace] | 33.6 nM
AAGUGAUGUUGUAGUGAUGUUGUGAUGUUGCAGGAUAUAUAGUGAUGUAGAAGGGUAUGUGCAGUUUUUUUUUUUGAGUGUUGAU [dpdmullin] | 76.6 nM
UGUUAUGUAUCAGGAUAUUAGUGUUGUUUGUUUAUGUUAGUGAUGUUGAUAUUUGUUUUAUGUAUUUAAGAAGGGAUUGAGAUGU [kkplmullin] | 369 nM

same assay, conditions: Eterna round: R107; input ligand: arginine 13.2 mM

Sequence | apparent KD of K4 kissing-loop reporter
UGUACCGAGUCAGGAUAUGUCGUCGAAAGACGAAAUGGAGUGAUGUUCCUUAAACUGCGAAAGCAGACAGAAGGGAUUUGGUACU [FmnBS 29 U77] | 654 nM
GGAUAGGAUAGAGGAUAUGGGCUAGGCAAGAAUAACUUGUCUAGCAAAUCCAUGAGGAGUGAUGUUCCAGAAGGCUAUCCUAUCG [FmnBX 1 U9+A77] | 160 nM
CGAAUGGAACUAUUGAACAUUUGUAUUGGCAAGGAUAUCGGGCUAUCGAGAAGGUGCUAUUUGGGCAGUGAUGUUGCCGAUUUAA [theeternabot_sameState_KL_FMN_A_10] | 94.4 nM
GACACACUUUCAGGUGUCCAGUGACUGGAUACCAGCAUGGAAACAUGCCCUUGGCAGCCAGAACUGGAAGUGAUGUUUCCAGUAA [Theo A Mod Design7 (Brourd)] | 241 nM
AGCUCAGAGUGACUCGAUAAGAGUCACAAACGAGGACCGGUACGGCCGCCACUCGAAAUAAAGAGAGUGAUGUUCUCGCUGAGCA [FiskerMod 9 - Jieux - Same State Tryptophan A] | 211 nM
UGUAUUUCGGCGGCCGCCACUGACCAUAGCCUUCGAUGGCCAGUGAUGUUGGCCUCUGGCUCUAACAGGACCGGGCCGAAUUGCG [Usvediin] | 165 nM
GCAUCCAUGGCAGGAUAUAGGUUCGUGGAGUGAUGUUCCAUAGCCCGAGUGAUGUUCGUUAUCCGCCUAGAAGGGCCGUGGAUGC [whbob_Ex_FMNB__2th214] | 184 nM
AGGUACAAAAGUACCGCUAGAUCCACGGAAGGAGCGCCCGAAAGGGCAGGUAGGUCGCCGGGCAGUGAUGUUGCCGGAUCUAGCA [Omei KL Arginine A SS A v6] | 163 nM
